Reference: the nanobody polyreactivity screen of Harvey et al. (2022)

test: yeast display, Sf9 membrane polyspecificity reagent, FACS + sequencing; frameworks hold sequencing errors
Method in brief: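 Polyreactivity labels are assigned by the sorting gate from which each nanobody was recovered. The gates were low and high (top ~1%), set on anti-HA fluorescence for expression and streptavidin fluorescence for reagent binding. Before sorting, galactose-induced (36–48 hours) yeast display cells were stained for 1 hour at 4 °C with 10% biotinylated, detergent-solubilized Sf9 membrane reagent.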

Sequence	polyreactivity (PSR sort gate)
QVQIVESGGGLVQAGGSLSLSCAASGRTISWYTMGWYRQAPGKERELVAGISSSGGSTYYADSVKGRFTISRDNAKNTVYLQLNSLKPEDTADYFCAAGDFRYVDRYGDMEYWGQGTQVTVSS	low polyreactivity
QVQIVESGGGLVQAGGSLSLTCAASGSIITSNDMGWYRQAPGKERELVAAISKSGGRTYYAYSVKGRFTISRENEKNTDYLQMNCLKQEYTAVYYCHAGIYGYGYNPSYDYWGQGTQVTLSS	high polyreactivity
QVQIVESGGGLVQARGSLRLSCAAYGRIIYRYAMGWYRQAPGKERELVAAISASGRTYYADSVKGRFTISRDNAKNTVYLQMNSLKPADTAVYYCAKVAAGSLGSWGQGTQVTVSS	high polyreactivity
QVQIVESGGGLVQAVGSLRLSCAASGFIFMANAMGWYRQAPGKERELVAAITTGGRTNYADSVKGRFTISRDNAKNTVYLQMNSLKPEDTAVYYCAARYINGWVRSFYYWGQGTQVNVSS	high polyreactivity
QVQIVESGGGLVQAVGSLRLSCAASGRIFHYNSMRWYRQAPGKERELVAAITDSTGGSTYYADSVKGRFTISRDNAKNTVYLQMNSLKPEDTAVYYFAAQDYQYSDYQWWFGYWGQGTKVTVSS	low polyreactivity
QVQIVESGGRIVQAGGSLRLSCAASGSTFGWYTMGWYRQSPGKESELVATISWRGGTTYYADSVKGRFTISRDNAKNTVYLQMNSLKPEDTAVYYCAARRYRASSRGYGYWGQGTQVTVSS	high polyreactivity
QVQIVESGGVLDQAGGSLRLSCAATGSTFAKNAMGWYRQAPGKERELVAAITSGGSTYYADSVKGRFTISRDNAKNTVYLQMYSLKPEDTAVYYCAVDYPWDIFIYWVQNYDHWGHGTQVTVSS	high polyreactivity
QVQIVESGGVLVQAGGSLRLSCAASGFNYTNYAMGWYIQSPGKERELVAAITYSGGSKYYADSVKGRFTISRDIAKNTVYLQMNSLKPEDTAVFFCNKYPSFYGAGYYWGQGTQVTVSS	high polyreactivity
QVQIVESGGVLVQAGGSLRLSCAASGITLRVYVMGWYRQAPGKERELVAAITSRGDRTYYADSVKGRSTISRDNAKNTVYLQMNSLKPEDTAVYDCAARYYSYPPGLSQTRLTYYYWGQGTQVTVSS	high polyreactivity
QVQIVESGVGLVQAGGSLRLSCAASGRIVSSKVMGLYRQAAGKERELVAAITSGGSTYYADSVKGRFTISRDNAKNTVYLQMNSLKPEDTAVYYCAASYWVLRYRYDYWGQGTQVTVSS	high polyreactivity
QVQIVESRGGLVQAGGSLRLSCAASGFIIYKYALGWYRQAPRKERELVAAISSSGGNTYYADSVKGRFTNSRDNAKNTVFLQMMSLKPEDTAVYYCAADYYVSKSRYYSYGYWGQGTQVTVSS	high polyreactivity
QVQIVESRGGLVQAGVSLRLSCAASGRIFAKNVMGWYRQAPGKDRELVAAISRSGGSTYYADSVKGRFTISRDNAKNTVYLQMNSLKPEDTAVYYCAATPAYGRRWSRYGYWGQGTQVNVSS	high polyreactivity
QVQIVESVGGLVQAGGSLRLSCAASGSTVERYAMGWYRKAPGKERELVARITWSGGSTYYADSVKGRFTISLDNAKNTVYVQMNSLKPEDTAVYYCNRDTRYPGYWRVFAKNNYWGQGTQVTVSS	high polyreactivity
QVQLAESGGGLVQAGGSLRLSCAASGSTSAKNVMGWYRQPPGTERELVAAISRSGGRTYYADSVKGRFTISRDNAKNTVYLQMNSLKPVDTAVYYCYTRYVKGFYWGQGTLVTVSS	high polyreactivity
QVQLDESGGGLVQAGGSLRLSCADSGRIFDRNALGWYRQAPGKESELVAAISSRGTSTYYADSVKGRFTISRDNAKNTVYLQMNSLKPEDTAVYYCAARPRYASDEFGYWGQGTQVTVSS	low polyreactivity
QVQLEDSGGGLVQAGGSLPLSCAASGLTFYVNARGWNRQAPGKERELVAGIDSGGSTYYAASVKGRFTISRDNAKNTVYLQMNSLKPEDTAVYYCAADEGYVWPYYGWGFGKYDYWGEGTQVTVSS	low polyreactivity

Sequence	polyreactivity (PSR sort gate)
QVQLEDSGGGLVQAGGSLRLSCAASGFIFGLNAMGWNRQAPGKERELVAAIRSASSTNYADSVKGRFTISRDNAKNTVYLQMNSLKPEDTAVYYCAAEYVTYQHGFWGYDYWGQGTQVTVSS	low polyreactivity
QVQLEDSGGGLVQAGGSLRLSCAASGLNLYRYAMGVYRQEPGKEREFVASISWSGGSTYYADSVKGRFTISRDNAKNTVYLQMNSLKPEDTAVYYCATDSDTSQLGYDYWGQGTQVTVAS	low polyreactivity
QVQLEDSGGGLVQAGGSLRLSCAASGRTFHRNAMGWYRQAPGKERELVAAITGSGGSTYYADSVKGRFTISRDNAKNTVYLQMNSLKPEDTAVYYCATYSYPERTGGQRTHYYWGQGTQVTVSS	high polyreactivity
QVQLEDSGGGLVQAGGSLRLSCAASGSTFNQYAMGWYRQATGKERELVAAITTSGARTYYADSVKGRFTISRDNAKNTVYLQMNSLKPEDTAVYYCNAGYFSYRYRYGYDYWGLGTQVTVSS	high polyreactivity
QVQLEDSGGGLVQAGGSLRLSCAASGSTFRYYTMGWYRQAPGKEREFVASIRTSGGSTYADSVKGRFTISRDNAKNTVYLQMNSLKPEDTAVYYCAARGGYRYTRYDYWGQGTQVTVSS	high polyreactivity
QVQLEDSGGGLVQAGGSLRLSCAASGSTWVYAMGWYRQAPGTERELVASITVSGGSTYYADSVKGRFTISRDNAKNTVYLQMNSLKPEDTAVYYCAAYDSYRKFKYWRQGTQVTVSS	high polyreactivity
QVQLEDSGGGLVQAGGTLRLSCAASGIIFAYNYMGWNRHATRKERELVATISSAGNTNYADSVKGRFTISRDNAKNTVYLQMNSLKPEETAVYYCAAEFFIVVTDEYDYWGQGTQVTVSS	low polyreactivity
QVQLEDSGRGLFQAGGSLRLSCAASGSNFAHYAMGWYIQAQGKERELVARFSWSGGSTYYADSVKGRFTISRDNAKNTVYLQMNSLKPEDTAVYYCAADHLYWGLEYEPWGQGTQVTVSS	low polyreactivity
QVQLEESAGGLVQAGGSLRLSCAASGSIFFWNDLGWYRQAPGKERELVAAISWSGGSTSYADSVKGRFTISRDNAKNTVYLQMNSLKPEDTAVYYCAADFYYRTLYGYIGMDYWGQGTQVTVSS	low polyreactivity
QVQLEESAGGLVQAGGSLSLICAASGTIVSYAMGWYRQAPGKQRELVAAISRSGGSTYYADSVKGRFTIARDNEKNTVYLQMNSLKPEDTAVYYCAARWRYLTLYAGFNYWGQGTQVTVSS	high polyreactivity
QVQLEESGAGLVQAGGSLRLSCAPSGIIYDGNAMGWYRKAPGKERELLASITSDSSTNYADSVKGRFTISRDNAKYTVYLHMNSLKPQDTAVYYCAADHWIAPRRDYWGQGTQVTVSS	low polyreactivity
QVQLEESGAGVVQAGGSLRLSCAASGRTFQYNAMGWYRPAPGTERELVAAISSSGGSTYYADSVKGRFTISRDNAKNTVYFQMNSLNPEDTAVYYCNAYSQSWNFYGVGDYWGQGTQVTVSS	low polyreactivity
QVQLEESGGALVQAGGSLRLSCAASGFIFTLYAMGWYRQAPGKEREFVAAISWSDGSTTYADSVKGRFTISRDNAKNTVYLQMNSLNPEDTAVYYCAAVTSSYIRGLVYHFYYWGQGTQVTVSS	low polyreactivity
QVQLEESGGALVQAGGSLRLSCAASGNTFGPKAMGWYRQAPGKERELVASINIGGRTNYADSVKGRFTISRDNAKNSVYLQLKSLKPEDTAVYYCNAGSGVQVVWYNAYREYEYWGQGTQVTVSS	low polyreactivity
QVQLEESGGCLDQAAGSLRLTCADSGFIFLPNAMGWYRQAPGKERELVADITYDGGTTYYADSVKGRFTISRDNAKNTVYLQKNSLKPEDTAVYYCNAETYEFHRSRGDYDYWGQGTQVTVSS	low polyreactivity
